Data on 6 molecules can be found in patent publication US20250074996A1 (Innovent, published 2025).

Test [1] has as its target T1, human GPRC5D (human, UniProt Q9NZD1 1-345).
T1 construct: whole, on cells; also called huGPRC5D; G protein-coupled receptor family C group 5 member D
Put plainly: flow cytometry on H929 cells. As to the method: (§1) The affinity of the anti-GPRC5D antibody was detected by flow cytometry. Antibodies at various concentrations were co-incubated with cells expressing human GPRC5D, including GS-CHO cells overexpressing human GPRC5D (huGPRC5D GS-CHO), multiple myeloma cells MM1.R, H929 and AMO-1, for 30 min. A fluorescently-labeled secondary antibody (APC-mouse anti-human IgG Fc antibody, Biolegend, Cat #409306) was then added, the cell fluorescence intensity was detected using a Live/Dead yellow dead cell stain (Thermo Fisher, Cat #L34967) by flow cytometry, a curve was fitted using GraphPad Prism 8.0, and the EC50 value was calculated to show the binding affinity of the antibody to human GPRC5D.
(§2) Among the antibodies detected, HB15H1G1 (the heavy chain variable region of SEQ ID NO: 25, and the light chain variable region of SEQ ID NO: 26) was a fully human antibody, and ch5E12C4 (the heavy chain variable region of SEQ ID NO: 98, and the light chain variable region of SEQ ID NO: 99), ch11B7 (the heavy chain variable region of SEQ ID NO: 100, and the light chain variable region of SEQ ID NO: 101) and ch7F5D4 antibodies (the heavy chain variable region of SEQ ID NO: 27, and the light chain variable region of SEQ ID NO: 28) were chimeric antibodies.

Test [2] deals with T1, human GPRC5D. Put plainly: flow cytometry on AMO-1 cells. As for the experimental part:
as §1, §2

The target of test [3] is T1, human GPRC5D. Put plainly: flow cytometry on MM1.R cells. As for the experimental part: as §1, §2
In test [4] the target is T1, human GPRC5D. Put plainly: flow cytometry on huGPRC5D-GS-CHO cells. As for the experimental part:
as §1, §2

For test [5], the target named is T2, CD3E on the surface of Jurkat-NFAT-Luc cells (UniProt P07766 23-207). Put plainly: cell-based or functional assay.
The target of test [6] is T2, CD3E on the surface of Jurkat-NFAT-Luc …. Put plainly: cell-based or functional assay. The source holds these as a separate data set.
The target of test [7] is T1, human GPRC5D. Put plainly: flow cytometry on huGPRC5D GS-CHO cells. As for the experimental part: as §1
In the exemplary trispecific antibodies, the binding affinities of the antigen-binding sites from the humanized antibodies hz5E12.1.P1 and hz11B7.5 to GPRC5D were detected.

For test [8], the target named is T3, Human BCMA-Bio (human, UniProt Q02223 1-54, biotin-labeled).
T3 construct: Bought antigen; also called human BCMA antigen (ACRO Biosystems)
T3 sequence (looked up): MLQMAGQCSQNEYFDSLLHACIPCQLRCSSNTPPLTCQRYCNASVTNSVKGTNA
Put plainly: BLI (Octet Red96e), SA or AHC sensors, 1:1 fit. As for the experimental part:
(§3) Sensors (Fortebio, Cat #18-5019) coupled to streptavidin protein (SA) or anti-human-Fc (AHC) were pre-wetted by immersion in 200 μL of SD buffer (1×PBS, 0.1% BSA, 0.05% tween-20). Exemplary antibodies and biotin-labeled or Fc-tagged BCMA and CD3D&E heterodimer antigens were diluted with SD buffer, respectively. 200 μL of SD buffer and diluted samples (100 nM) were taken and added to a 96-well black plate (Greiner, Cat #655209), respectively. The sensors and the samples were placed in Octet (Fortebio, Red96e). Data Acquisition 10.0 was executed and “New Kinetic Experiment” was selected. The sensors were arranged according to the positions of the samples, and the operation procedures and times were set as: Baseline 60 s, Loading 250 s, Baseline 100 s, Association 600 s and Dissociation 600 s. The experiment was conducted at a rotation speed of 1000 rpm and 30° C.
(§4) The results were analyzed in “Data Analysis 10.0” software, with the buffer reference channel being subtracted. 1:1 binding was selected to fit the data, and kₒₙ, koff, and KD values for the exemplary antibodies were calculated.
(§5) In the experiments performed according to the above-mentioned assay, the exemplary antibodies were detected using a human BCMA antigen (ACRO Biosystems) and a monkey BCMA antigen (ACRO Biosystems). The detection results of the affinities to human BCMA are shown in Table 6; and the detection results of the affinities to monkey BCMA are shown in Table 7.

Test [9] deals with T4, Cyno BCMA-Fc (monkey (cyno), UniProt A0A2K5UD97 1-53).
T4 construct: also called monkey BCMA antigen (ACRO Biosystems); not shown: Fc tag of the bought antigen
Put plainly: BLI (Octet Red96e), SA or AHC sensors, 1:1 fit. As for the experimental part: as §3, §4, §5

For test [10], the target named is T5, Human CD3D&E-Bio (human, UniProt P07766 23-126; P04234 22-105, biotin-labeled (site not stated)).
T5 construct: Bought heterodimer antigen; also called human CD3D&E heterodimer antigen (ACRO Biosystems); human CD3E
Put plainly: BLI (Octet Red96e), SA or AHC sensors, 1:1 fit. As for the experimental part: as §3, §4
(§6) In experiments performed according to the above-mentioned assay, the affinities of the exemplary antibodies were detected using a human CD3D&E heterodimer antigen (ACRO Biosystems) and a monkey CD3D&E heterodimer antigen (ACRO Biosystems). The binding affinities of GPRC5D×CD3 bispecific antibodies hz5E12.1-P1/SP34.24 and hz5E12.1-P1/SP34.87 to human/monkey CD3D&E were also detected.

Test [11] concerns the target T6, Cyno CD3D&E-Bio (monkey (cyno), UniProt Q95LI5 22-117; Q95LI8 22-105, biotin-labeled (site not stated)).
T6 construct: Bought heterodimer antigen; also called monkey CD3D&E heterodimer antigen (ACRO Biosystems); monkey CD3E
Put plainly: BLI (Octet Red96e), SA or AHC sensors, 1:1 fit. As to the method:
as §3, §4, §6

T6 sequence (Q95LI5 22-117 limits assumed, chain 1 of 2): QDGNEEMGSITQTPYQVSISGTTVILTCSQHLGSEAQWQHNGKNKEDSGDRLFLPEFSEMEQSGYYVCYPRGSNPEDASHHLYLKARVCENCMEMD
T6 sequence (Q95LI8 22-105 limits assumed, chain 2 of 2): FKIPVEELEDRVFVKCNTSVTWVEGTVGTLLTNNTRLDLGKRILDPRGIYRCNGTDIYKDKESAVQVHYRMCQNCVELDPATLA
T2 sequence (P07766 23-207): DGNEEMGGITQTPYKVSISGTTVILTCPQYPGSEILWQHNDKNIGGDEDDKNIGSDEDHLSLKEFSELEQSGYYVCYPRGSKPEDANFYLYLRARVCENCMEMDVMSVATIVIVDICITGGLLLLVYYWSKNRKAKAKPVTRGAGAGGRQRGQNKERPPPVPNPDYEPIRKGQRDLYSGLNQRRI
T5 sequence (P07766 23-126 limits assumed, chain 1 of 2): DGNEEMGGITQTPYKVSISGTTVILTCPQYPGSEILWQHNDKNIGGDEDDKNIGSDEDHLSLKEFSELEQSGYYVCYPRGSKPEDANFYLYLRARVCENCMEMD
T5 sequence (P04234 22-105 limits assumed, chain 2 of 2): as the sequence (Q95LI8 22-105 limits assumed, chain 2 of 2) above, with V5I, K15N, V20I, T32S, N33D, N34I, A64T, N74S, L83V counted along it
T1 sequence (Q9NZD1 whole entry): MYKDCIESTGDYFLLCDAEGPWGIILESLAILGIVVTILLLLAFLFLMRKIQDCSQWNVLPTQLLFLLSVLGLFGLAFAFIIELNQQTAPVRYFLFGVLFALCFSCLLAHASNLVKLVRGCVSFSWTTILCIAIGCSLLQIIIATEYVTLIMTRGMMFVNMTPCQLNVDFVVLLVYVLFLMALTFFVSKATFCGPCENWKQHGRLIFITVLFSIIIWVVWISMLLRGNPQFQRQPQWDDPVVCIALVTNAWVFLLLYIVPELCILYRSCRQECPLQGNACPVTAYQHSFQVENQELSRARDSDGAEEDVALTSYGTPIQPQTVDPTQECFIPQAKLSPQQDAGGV
T4 sequence (A0A2K5UD97 entry or part of it): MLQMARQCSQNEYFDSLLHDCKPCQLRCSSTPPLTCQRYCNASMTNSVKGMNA

B1: HB15H1G1 (antibody, V domains shown)
VH: QVQLVESGGGVVQPGRSLRLSCTASGFTFSSYGLHWVRQAPGKGLEWVAVIWYDGSNKYYIDSVKGRFIISRDNSKNTLYLQMNSLRAEDTAVYYCARFTMFRGITLDYWGQGTLVTVSS
VL: DIQMTQSPSSLSASVGDRVTITCRASQRINSYLNWYQQKPGKAPKLLIYAASSLQSGVPSRFSGSGSGTDFTLTISNLQPEDFATYYCQQSYSTPLTFGGGTKVEIK
notes: Fully human anti-GPRC5D antibody; also called HB15H1B1
For B1, the EC50 in [1] is 3.7 nM; in test [2] it was 9.4 nM; in test [3], 0.7 nM; in test [4] it was 1.89 nM.

B2: TS-F2-4 (hz5E12.1.P1/SP34.24/38456) (antibody, human IgG1, kappa, lambda, L234A L235A)
heavy 1: not shown
light 1: DIVMTQSPDSLAVSLGERATINCRASESVDSYGITFMNWYQQKPGQPPKLLIYAASNQGSGVPDRFSGSGSGTDFTLTISSLQAEDVAVYYCQQSKEVPWTFGQGTKLEIKRTVAAPSVFIFPPSDEQLKSGTASVVCLLNNFYPREAKVQWKVDNALQSGNSQESVTEQDSKDSTYSLSSTLTLSKADYEKHKVYACEVTHQGLSSPVTKSFNRGEC
heavy 2: not shown
light 2: QAVVTQEPSLTVSPGGTVTLTCRSSTGAVTTSNYANWVQQKPGQAPRGLIGGTNKRAPGVPARFSGSLLGDKAALTLLGAQPEDEAEYYCALWYSNLWVFGQGTKLTVLGQPKAAPSVTLFPPSSEELQANKATLVCLISDFYPGAVTVAWKADSSPVKAGVETTTPSKQSNNKYAASSYLSLTPEQWKSHRSYSCQVTHEGSTVEKTVAPTECS
Turning to B2, in test [5], the “EC50 of Jurkat-NFAT-Luc luciferase activation; tumor cells 8226” value amounted to 0.00788 nM, the “EC50 of Jurkat-NFAT-Luc luciferase activation; tumor cells H929” value was 0.00738 nM, the “EC50 of Jurkat-NFAT-Luc luciferase activation; tumor cells L363” value turned out to be 0.00629 nM and the “EC50 of Jurkat-NFAT-Luc luciferase activation; tumor cells U266” value is 0.0503 nM. Moreover, in [6], the “EC50 of Jurkat-NFAT-Luc luciferase activation; tumor cells ARD” value amounted to 0.00238 nM and the “EC50 of Jurkat-NFAT-Luc luciferase activation; tumor cells MM.1S” value came to 0.00179 nM. The molecule further showed an EC50 in test [7] of 40 nM. In [8], binding was put at a Kd of 2.27 nM, the koff worked out at 0.000297 s⁻¹ and the kon was found to be 131000 M⁻¹ s⁻¹. Further, in [9], the affinity, expressed as Kd, was 0.204 nM; the koff is 0.0002 s⁻¹; the kon is 980000 M⁻¹ s⁻¹. In test [10], this molecule displayed a Kd of 22.1 nM, a koff of 0.00326 s⁻¹ and a kon of 147000 M⁻¹ s⁻¹. Moreover, in [11], the Kd is 22.7 nM, the koff came out at 0.00301 s⁻¹ and the kon was found to be 132000 M⁻¹ s⁻¹.

B3: TS-F2-5 (hz5E12.1.P1/SP34.87/38456) (antibody, human IgG1, kappa, lambda, L234A L235A)
heavy 1: not shown
light 1: B2 light 1
heavy 2: not shown
light 2: B2 light 2
For the molecule B3, in test [5], the “EC50 of Jurkat-NFAT-Luc luciferase activation; tumor cells 8226” value came to 0.0211 nM, the “EC50 of Jurkat-NFAT-Luc luciferase activation; tumor cells H929” value stood at 0.0178 nM, the “EC50 of Jurkat-NFAT-Luc luciferase activation; tumor cells L363” value was found to be 0.0213 nM and the “EC50 of Jurkat-NFAT-Luc luciferase activation; tumor cells U266” value was 0.858 nM. Besides, in test [6], the “EC50 of Jurkat-NFAT-Luc luciferase activation; tumor cells ARD” value came out at 0.00696 nM and the “EC50 of Jurkat-NFAT-Luc luciferase activation; tumor cells MM.1S” value is 0.00734 nM. The EC50 in test [7] is 45 nM. In test [8], this molecule gave a Kd of 2.1 nM, a koff of 0.000279 s⁻¹ and a kon of 133000 M⁻¹ s⁻¹. In addition, in test [9], the Kd turned out to be 0.21 nM, the koff is 0.0002 s⁻¹ and the kon was 950000 M⁻¹ s⁻¹. Further, in [10], binding was put at a Kd of 243 nM, the koff was found to be 0.0188 s⁻¹ and the kon came to 77500 M⁻¹ s⁻¹. For the same molecule, in [11], the Kd was determined as 220 nM, the koff came to 0.0173 s⁻¹ and the kon was 78600 M⁻¹ s⁻¹.

B4: ch5E12C4 (antibody, V domains shown)
VH: EVQLQQSGPELVKPGASVKMSCKASGYTFIGYVMHWVKRKPGQGLEWIGYINPYNDVSQHNGKFKGKATLTSDKSSSTAYMELSSLTSEDSAVYYCAREGRLGLRVLAYWGQGTLVTVSA
VL: not shown
With B4, the EC50 in [1] was 21.7 nM; in test [2], 100 nM; in [3], 3.7 nM; in test [4], 9.18 nM.

B5: ch7F5D4 (antibody, V domains shown)
VH: DVQLQESGPGLVKPSQSLSLTCTVTGYSITSDYAWNWIRQFPGNKLEWMVYIDYTGRTSYNPSLKSRISLTRDTSKNQFFLQFNSVTTEDTATYYCARGNYGRYYYVMDYWGQGTSVTVSS
VL: DIQMTQTTSSLSASLGDRVTISCRASQDIRNYLNWYQQRPDGTIKLLIYYTSRLHSGVPSRFSGSGSGTDYSLTISNLDQEDFATYFCQQGNMLPWTFGGGTSLEIK
In the case of B5, the EC50 is 7.3 nM in test [1], 6.3 nM in [2], 0.5 nM in test [3] and 2.59 nM in test [4].

B6: ch11B7 (antibody, V domains shown)
VH: EVQLQQSVAELARPGASVKMSCKASGYTFTTYTMHWVKQRPGQGLEWIGFIIPSSGYTSYNQNFKDKVTLTADKSSSTAYMQLSSLTSEDSAVYFCTGGQARAYYPLDYWGQGTSVTVSS
VL: DIVMTQSPAILSVSPGERVSFSCRASQSIGTTIHWYQQRSNGSPRLLIKYASESISGIPSRFSGSGSGTYFTLSINSVESEDIADYFCQQSYNWPRTFGGGTKLEIK
For B6, the 50% effective concentration (EC50) was 5.99 nM in test [1] and 1.14 nM in test [4].
